Assay [1] has as its target DR4-selective phage clone 9 (human) (UniProt P50591). The experiment in a line: competition phage ELISA: phage clone Apo.DR4-9 at a fixed concentration on wells coated with DR4-IgG, competed by rising soluble DR4-IgG (axis in nM), bound phage detected with anti-M13 antibody-HRP, A450; IC50 from a 4-parameter fit, second value in the IC50 box beside the legend.
Assay [2] has as its target DR4-selective phage clone 11 (human) (UniProt P50591). The assay can be described thus: competition phage ELISA: phage clone Apo.DR4-11 at a fixed concentration on wells coated with DR4-IgG, competed by rising soluble DR4-IgG (axis in nM), bound phage detected with anti-M13 antibody-HRP, A450; IC50 from a 4-parameter fit, third value in the IC50 box beside the legend.
In assay [3] the target is wild-type (native sequence) Apo2L/TRAIL(96-281) displayed on phage (human) (UniProt P50591). The experiment in a line: competition phage ELISA: wild-type Apo2L/TRAIL phage (ApoWT) at a fixed concentration on wells coated with DR4-IgG, competed by rising soluble DR4-IgG (axis in nM), bound phage detected with anti-M13 antibody-HRP, A450; IC50 from a 4-parameter fit, fifth value in the IC50 box beside the legend.

The target of assay [4] is DR4-selective phage clone 8 (human) (UniProt P50591). The assay can be described thus: competition phage ELISA: phage clone Apo.DR4-8 at a fixed concentration on wells coated with DR4-IgG, competed by rising soluble DR4-IgG (axis in nM), bound phage detected with anti-M13 antibody-HRP, A450; IC50 from a 4-parameter fit, first value in the IC50 box beside the legend.
Assay [5] deals with DR4-selective phage clone 13 (human) (UniProt P50591). The experiment in a line: competition phage ELISA: phage clone Apo.DR4-13 at a fixed concentration on wells coated with DR4-IgG, competed by rising soluble DR4-IgG (axis in nM), bound phage detected with anti-M13 antibody-HRP, A450; IC50 from a 4-parameter fit, fourth value in the IC50 box beside the legend.

Chain of DR4-IgG (O00220 24-241 H141R/R209T limits assumed): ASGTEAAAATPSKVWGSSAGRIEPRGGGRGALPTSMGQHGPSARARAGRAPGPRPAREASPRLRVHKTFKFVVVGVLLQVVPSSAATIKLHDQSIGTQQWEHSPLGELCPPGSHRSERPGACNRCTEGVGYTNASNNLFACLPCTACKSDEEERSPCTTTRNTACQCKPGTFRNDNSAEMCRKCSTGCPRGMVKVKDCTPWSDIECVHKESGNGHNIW

Turning to “DR4-IgG (from UniProt O00220 24-241) (Fc fusion)”, the IC50 is 1.1 nM in assay [1]; 4.2 nM in assay [2]; 2.8 nM in assay [3]; 1.3 nM in assay [4]; 6.7 nM in assay [5].

These data come from patent US20120165267A1.
